In the supplement of paper PMC9170038:

System: MS2 coat protein
Assay: apparent KD of MS2 coat protein; designed switch direction (-1 OFF switch, 1 ON switch): -1; higher = weaker reporter binding
How it was run: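 For each design, the apparent KD is the median over clusters of curves fitted to normalised cluster fluorescence. Clusters held RNA switches with common flanks, transcribed on Illumina chips by stalled E. coli RNA polymerase. These were titrated with SNAP-549-labelled MS2 coat protein, doubling from 0.7 or 1.5 nM to 3 µM, without input, with 200 uM small-molecule ligand, or with an oligonucleotide input.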

[1] = input ligand: microRNA oligo, concentration not stated
[2] = Eterna round: R95, input ligand: FMN 200 uM
[3] = Eterna round: R95, input ligand: microRNA oligo, concentration not stated
[4] = Eterna round: R95, input ligand: none

| Sequence | apparent KD of MS2 coat protein (input ligand: FMN 200 uM) [nM] | apparent KD of MS2 coat protein [1] [nM] | apparent KD of MS2 coat protein (input ligand: none) [nM] | apparent KD of MS2 coat protein [2] [nM] | apparent KD of MS2 coat protein [3] [nM] | apparent KD of MS2 coat protein [4] [nM] |
| --- | --- | --- | --- | --- | --- | --- |
| ACUAAACAUGUAGGAUAUGCGUGGCGAAGCUAUGCAGAAGGACAUGAGGAUCACCCAUGUUUUAGCGUCUGCGUACAGAUGCGU [JL ENG1 1.44] (Eterna round: R96, puzzle: Exclusion NG 1) | 200 | 17.5 | 22.7 | – | – | – |
| GAUUAUGCGAGCUUUAGGGACAUGAGGAUCACCCAUGUUCGUCUUAUUGGUCUAGAUACACUGACAUACCUAAAUCU [JMF 58] (puzzle: Sensor v3, turn-off variant 1) | – | – | – | 14.8 | 19.1 | 14 |
| CCUGCGGACAAAGGAUAUUGCGGUGACCGGCUCGGCGUACCGAGCCUACAUGAGGAUCACCCAUGUAAGAAGGUUGUCGCUGGU [JL ViennaUCT Qudice mod 2] (Eterna round: R96, puzzle: Exclusion NG 2) | 104 | 19.1 | 24.8 | – | – | – |
| ACAUGAGGAUCACCCAUGUCCGGCUGGUCCGUCUCGGCUGUCGAGGAUAUAGCACGGUAUCCGCGCUAGAAGGCGGGAGCCGGA [Aenatbe mod 85] (Eterna round: R96, puzzle: Exclusion NG 3) | 72.4 | 26 | 39.6 | – | – | – |
| UUUUCCAGAGGAUAUGCGAAUAAAUAAAACUUUUUUUUUUAACAUGAGGAUCACCCAUGUAGAAGGCUGCUUUU [Ex2 #27] (Eterna round: R97, puzzle: Exclusion 2) | 27.1 | – | 30.1 | – | – | – |
| CUAGCGGAUGUAGGAUAUCGGACUGUUUCAGUCUGAGAAGGACAUGAGGAUCACCCAUGUAUAGCUGCGUGAGUAGCUCGCUAG [JL ENG1 3.96] (Eterna round: R96, puzzle: Exclusion NG 1) | 39.2 | 17.5 | 19.8 | – | – | – |
| ACAUGAGGAUCACCCAUGUAAACAUAAUGGCUCAUGUAGAGUCAGGAUAUGCGUGGCGAACACGCGCAGAAGGGACAAGACUGG [Deportation 24 - Jieux - Exclusion NG 3] (Eterna round: R96, puzzle: Exclusion NG 3) | 32.4 | 21 | 31 | – | – | – |
| AUUUAAUUUAAUAAGAUCACAUGAGGAUCACCCAUGUUAUAAUAGGAUAUCAGCUCGUGUAGAGCUGAGAAGGAUUAUAACAUG [ExNG3/9-A3] (Eterna round: R96, puzzle: Exclusion NG 3) | – | 22.2 | – | – | – | – |
| GGUCCACAUGAGGAUCACCCAUGUUAGGAUAUCUCCUGCCUCCUAAAUGGAAGCAGACAGAGAAGGAACAUCAA [Soanatra] (puzzle: Exclusion 1) | – | – | – | – | 24.5 | – |
| ACAUGUUGCGCAGGAUAUGGGACACAUGAGGAUCACCCAUGUGGUUUCAUGUCUAACCAAGCGUCCCAGAAGGGCGUGAACAUG [Ex NG2 #30] (Eterna round: R96, puzzle: Exclusion NG 2) | 41.8 | 20.8 | 19.9 | – | – | – |
| GUCUGCACGCUGCGGUCCUACAUGAGGAUCACCCAUGUGGUCUGGUGGCGUGGGUCGCCGGACUUGGCUCGUCUUGG [salish99_S_TOV1_R5_048] (Eterna round: R97, puzzle: Sensor, turn-off variant 1) | 14.8 | – | 14.7 | – | – | – |
| UUCGUGCAGCAAAGCUGUACGCGUACAUGAGGAUCACCCAUGUAGGAUAUGGUAGGCAAAGCUUACUAGAAGGAUAUGGUGAGC [Mat - Exclusion NG 3 - Mod of JL - D80] (Eterna round: R96, puzzle: Exclusion NG 3) | 51.9 | 36.8 | 35.2 | – | – | – |
| GAGGUACAUGAGGAUCACCCAUGUGAGGAUAUAGGUAGAGAUUGAGAGAGGUGGAGGACUAGAAGGCACAGUGG [JR_Exclu1_Sub040] (puzzle: Exclusion 1) | – | – | – | 59.6 | 46 | 60.3 |
| GUAAUUAAUGUAGGAUAUGCAAGGCGAACCUAAGCAGAAGGACAUGAGGAUCACCCAUGUAUUGCGGUCUGCGUUCUGAUCGCU [salish99_ExNG1_r4_010] (Eterna round: R96, puzzle: Exclusion NG 1) | 19.1 | 8.25 | 17 | – | – | – |
| UCACGGGACUGAGGAUAUACAUGAACCAUUUUUGUAGAAGGCAGAAUGUUAGAUCAUACACUAAACAUGAGGAUCACCCAUGUU [JR_ExcNG1_Sub025] (Eterna round: R96, puzzle: Exclusion NG 1) | 15.1 | 18.8 | 19.7 | – | – | – |
| ACAAGCUCUGUGGGUGGUGACAUGAGGAUCACCCAUGUUUUGCUCGUCUUGUGGGCCCGGGCCCGCGGCCCGGGCCC [-41.4, -70.3, A 12%] (Eterna round: R97, puzzle: Sensor, turn-off variant 1) | 516 | – | 978 | – | – | – |
| CUCUUGUUAGGAUAUCAAACUGGCAGCGGAGCUGGCAGAAGUGAGAAGGGACAUGAGGAUCACCCAUGUAAGAA [Aristeza] (puzzle: Exclusion 4) | – | – | – | – | 70.2 | – |
| UUAUAGAGAGGAUAUAUAAUGUGAAACAUGAGGAUCACCCAUGUAAUAUUAUGGAUGUAAAUAGAAGGCUCAAUUU [Mat - Exclusion 5 - JL mod - D14] (puzzle: Exclusion 5) | – | – | – | 29.3 | 30.6 | 32.4 |
| CCCGGGUUUGUAGGAUAUGCCCGCCUUUGGCGGGCAGAAGGACAUGAGGAUCACCCAUGUUGUAUAAACUUGGGAUGUUCCUCG [random4] (Eterna round: R96, puzzle: Exclusion NG 1) | 30.8 | 31.3 | 40.7 | – | – | – |
| CGCGAACAUGAGGAUCACCCAUGUGAGGAUAUCAUGCUUCGUAGUAAACUACGAAGUGUGAGAAGGCACAUGCG [Omei Ex1 D5] (Eterna round: R97, puzzle: Exclusion 1) | 297 | – | 164 | – | – | – |
| AACGUGUAAGGAUAUCUGCUUAUGCUCGGCAAUGCACCGAUAGAGAAGGUACAUGAGGAUCACCCAUGUUCCAA [EX4 A.16] (Eterna round: R97, puzzle: Exclusion 4) | 16.7 | – | 15.8 | – | – | – |
| AAUAGCAAGCAGAUCCUAAACAUGAGGAUCACCCAUGUGCUCGUCUUGUAAAGUACUAUCACGAAAGUGAUAGUACA [Sensor 3, v1 - 61] (puzzle: Sensor v3, turn-off variant 1) | – | – | – | 118 | 326 | 88.3 |
| UUCCUCAUAACAUGAGGAUCACCCAUGUAUUAUUUGGUAACUGAGGAUAUACUUUUAAUGUUUAUGUAGAAGGCAGAUACAGUU [JR_ExcNG3_Sub017] (Eterna round: R96, puzzle: Exclusion NG 3) | 165 | 80.4 | 109 | – | – | – |
| GGAUCGAAAGUGAGGAUAUACCUAUGGAAACAUAGGUAGAAGGCACAUGAGGAUCACCCAUGUUCCUACGGUCC [Mat - Exclusion 4 - Eli Mod - D10] (Eterna round: R97, puzzle: Brourd's mod of Exclusion 4) | 113 | – | 20 | – | – | – |
